Source: patent US20240245796A1 (PROFOUNDBIO US, published 2024)

B1: F131 (antibody, V domains shown)
VH: EVQLLESGGGVVQPGRSLRLSCAASGFTFSSYGMHWVRQAPGKGLEWVAVISYDGSNKYYADSVKGRFTISRANSKNTLYLQMNSLRAEDTAVYYCARPRAYYGAYGSSFDYWGQGTQVTVSS
VL: EIVMTQSPSSVSASVGDRVAITCRASQGISSWLAWYQQKPGKAPKLLIYAASSLQSGVPSRFSGSGSGTDFTLTISSLQPEDFATYYCQQSYSTPLTFGGGTKVDIK
notes: also called clone F131; F131 mAb
B2: F131-LD038 (antibody, V domains shown)
VH: B1 VH
VL: B1 VL
modifications: drug-linker LD038 (PB038, maleimide-PEG unit-Val-Cit-PAB-exatecan) on cysteines freed by TCEP reduction; positions not given
notes: Antibody-drug conjugate of F131 (IgG1) with LD038; also called anti-huFOLR-1 conjugate F131-LD038; F131-038

Experiments:
[1] = target: T1, rat FOLR1 extracellular domain linked to His tag (rat); assay: BLI, Ag 15.6 nM; * = below range of quantification
T1 construct: extracellular domain; Antigen in solution in BLI; also called Rat-Ag

[2] = target: T2, mouse FOLR1 extracellular domain linked to His tag (mouse, UniProt P35846 25-232, limits assumed); assay: BLI, global 1:1 fit (500 nM row); only the 500 nM response quantifiable; only the 500 nM response quantifiable; R^2 0.6807
T2 construct: extracellular domain; Antigen in solution in BLI; also called Mouse-Ag; not shown: His tag
T2 sequence (P35846 25-232 limits assumed): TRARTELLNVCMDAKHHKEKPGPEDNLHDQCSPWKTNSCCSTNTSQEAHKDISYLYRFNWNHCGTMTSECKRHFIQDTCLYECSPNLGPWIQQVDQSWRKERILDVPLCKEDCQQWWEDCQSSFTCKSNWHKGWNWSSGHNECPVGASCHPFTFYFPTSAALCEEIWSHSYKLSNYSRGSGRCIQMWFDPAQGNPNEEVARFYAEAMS

[3] = target: T3, human FOLR1 extracellular domain linked to His tag (human, UniProt P15328 25-233, limits assumed); assay: BLI, global 1:1 fit (500 nM row); Table 12 run (species FOLR α panel, Hu-Ag)
T3 construct: extracellular domain; It may be the same product as m13; also called Hu-FRα; Hu-Ag; not shown: His tag
T3 sequence (P15328 25-233 limits assumed): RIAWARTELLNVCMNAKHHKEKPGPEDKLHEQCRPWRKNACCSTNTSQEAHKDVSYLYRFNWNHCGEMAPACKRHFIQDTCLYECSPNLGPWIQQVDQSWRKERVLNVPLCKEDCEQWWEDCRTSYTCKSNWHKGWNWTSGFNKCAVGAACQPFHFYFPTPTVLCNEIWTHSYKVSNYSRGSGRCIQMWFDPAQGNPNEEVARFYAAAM

[4] = target: T4, cynomolgus FOLR1 protein, His Tag (ACRO F01-C52H8) (cynomolgus, UniProt A0A2K5U044 25-233); assay: ELISA, coated cyno FOLR1-His, supernatant 1x
T4 construct: Bought protein coated on ELISA plates; also called Cynomolgus/Rhesus macaque FOLR1, Protein, His Tag; not shown: His tag
T4 sequence (A0A2K5U044 entry or part of it): as the sequence (P15328 25-233 limits assumed) above, with I2T, W4R, R37K, A146P, H171Y counted along it

[5] = target: T4, cynomolgus FOLR1 protein, His Tag (ACRO …); assay: ELISA, coated cyno FOLR1-His, supernatant 25x
[6] = target: T5, human FOLR1 protein, His Tag (ACRO FO1-H52H1) (human, UniProt P15328 25-233); assay: ELISA, coated hFOLR1-His, supernatant 1x
T5 construct: Bought protein coated on ELISA plates; not shown: His tag
T5 sequence (P15328 25-233 limits assumed): as the sequence (P15328 25-233 limits assumed) above

[7] = target: T5, human FOLR1 protein, His Tag (ACRO …); assay: ratio of OD450 on hFOLR1 to OD450 on anti-human IgG Fc
[8] = target: T5, human FOLR1 protein, His Tag (ACRO …); assay: ELISA, coated hFOLR1-His, supernatant 5x
[9] = target: T2, mouse FOLR1 extracellular domain linked …; assay: BLI, global 1:1 fit (125 nM row); only the 500 nM response quantifiable
[10] = target: T6, cynomolgus monkey FOLR1 extracellular domain linked to His tag (cynomolgus monkey, UniProt A0A2K5U044 25-233); assay: BLI, global 1:1 fit (125 nM row)
T6 construct: extracellular domain; Antigen in solution in BLI; It may be the same product as m14; also called Cyno-Ag; not shown: His tag
T6 sequence (A0A2K5U044 entry or part of it): as the sequence (P15328 25-233 limits assumed) above, with I2T, W4R, R37K, A146P, H171Y counted along it

[11] = target: T3, human FOLR1 extracellular domain linked …; assay: BLI, global 1:1 fit (125 nM row)
[12] = target: T5, human FOLR1 protein, His Tag (ACRO …); assay: ELISA, coated hFOLR1-His, supernatant 25x
[13] = target: T3, human FOLR1 extracellular domain linked …; assay: BLI, global 1:1 fit (500 nM row); Table 11 run (FOLR family panel, Hu-FRα)
[14] = target: T7, human FOLR3 extracellular domain linked to His tag (human, UniProt P41439 23-245, limits assumed); assay: BLI, global 1:1 fit (250 nM row); all responses below quantification
T7 construct: extracellular domain; Antigen in solution in BLI; also called Hu-FRg; not shown: His tag
T7 sequence (P41439 23-245 limits assumed): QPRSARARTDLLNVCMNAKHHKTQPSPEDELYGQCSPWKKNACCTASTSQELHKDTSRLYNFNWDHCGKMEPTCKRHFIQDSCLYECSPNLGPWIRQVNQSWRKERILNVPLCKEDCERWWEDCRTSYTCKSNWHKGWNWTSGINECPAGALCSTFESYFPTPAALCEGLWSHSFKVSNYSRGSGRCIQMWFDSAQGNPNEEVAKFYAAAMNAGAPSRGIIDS

[15] = target: T1, rat FOLR1 extracellular domain linked …; assay: BLI, global 1:1 fit (125 nM row); all responses below quantification
[16] = target: T1, rat FOLR1 extracellular domain linked …; assay: BLI, Ag 31.3 nM; * = below range of quantification
[17] = target: T7, human FOLR3 extracellular domain linked …; assay: BLI, global 1:1 fit (7.82 nM row); all responses below quantification
[18] = target: T5, human FOLR1 protein, His Tag (ACRO …); assay: ELISA, coated hFOLR1-His, HEK293 supernatant
[19] = target: T8, human FOLR2 extracellular domain linked to His tag (human, UniProt P14207 17-230, limits assumed); assay: BLI, Ag 500 nM over Ab on anti-hIgG Fc tip
T8 construct: extracellular domain; Antigen in solution in BLI; also called Hu-FRb; not shown: His tag
T8 sequence (P14207 17-230 limits assumed): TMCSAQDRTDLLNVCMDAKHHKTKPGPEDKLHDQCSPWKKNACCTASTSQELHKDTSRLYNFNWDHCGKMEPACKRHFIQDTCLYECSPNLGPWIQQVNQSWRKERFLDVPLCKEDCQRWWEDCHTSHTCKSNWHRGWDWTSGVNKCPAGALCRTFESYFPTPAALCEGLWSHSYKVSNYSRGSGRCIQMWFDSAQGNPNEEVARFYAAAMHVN

[20] = target: T4, cynomolgus FOLR1 protein, His Tag (ACRO …); assay: ELISA, coated cyno FOLR1-His, supernatant 5x
[21] = target: T7, human FOLR3 extracellular domain linked …; assay: BLI, Ag 7.82 nM; * = below range of quantification
[22] = target: T8, human FOLR2 extracellular domain linked …; assay: BLI, Ag 7.82 nM; * = below range of quantification
[23] = target: T7, human FOLR3 extracellular domain linked …; assay: BLI, global 1:1 fit (62.5 nM row); all responses below quantification

Binder | Response [1] | Kd [9] | koff [9] | kon [9] | Kd [10] | koff [10] | kon [10] | Kd [11] | koff [11] | kon [11] | koff [14] | koff [15] | kon [15] | Response [16] | koff [17] | Response [19] | Response [21] | Response [22] | koff [23] | other results
B1 | -0.00395 | 2960 nM | 0.301 s⁻¹ | 102000 M⁻¹ s⁻¹ | 8.15 nM | 0.00157 s⁻¹ | 193000 M⁻¹ s⁻¹ | 1.53 nM | 0.000338 s⁻¹ | 221000 M⁻¹ s⁻¹ | 0.217 s⁻¹ | 1.03 s⁻¹ | 5490 M⁻¹ s⁻¹ | -0.00532 | 0.217 s⁻¹ | 0.037 | 0.00103 | 0.0011 | 0.217 s⁻¹ | Kd [2]: 2960 nM; Kd [3]: 1.53 nM; OD450 [4]: 1.2 OD450; OD450 [5]: 1.09 OD450; OD450 [6]: 1.61 OD450; Target binding/IgG level [7]: 1.02; OD450 [8]: 1.52 OD450; OD450 [12]: 1.38 OD450; Kd [13]: 5.3 nM; kon [14]: 1660 M⁻¹ s⁻¹; kon [17]: 1660 M⁻¹ s⁻¹; OD450 [18]: 2.35 OD450; OD450 [20]: 1.27 OD450; kon [23]: 1660 M⁻¹ s⁻¹
B2 | -0.00212 | 2870 nM | 0.266 s⁻¹ | 92600 M⁻¹ s⁻¹ | 8.82 nM | 0.0016 s⁻¹ | 181000 M⁻¹ s⁻¹ | 4.8 nM | 0.00107 s⁻¹ | 224000 M⁻¹ s⁻¹ | 0.233 s⁻¹ | 0.224 s⁻¹ | 2.64e+06 M⁻¹ s⁻¹ | -0.00454 | 0.233 s⁻¹ | 0.0427 | 0.0004 | 0.002 | 0.233 s⁻¹ | 
